Test results as given in patent US20260184794A1, “ANTIBODIES AGAINST INTEGRIN ALPHA 11 BETA 1 AND USES THEREOF” (Momenta Pharmaceuticals, Inc., priority 2022, published 2026).

B1: A11BB133: 79E3E3 variant; VH SEQ ID NO: 4, VL SEQ ID NO: 21 (antibody, V domains shown)
VH: QIQLVQSGSELKKPGASVKVSCKASGYTFTDYAMNWVRQAPGQGLEWMGWINTQTGKPTYAQGFTGRFVFSLDTSVSTAYLQISSLKAEDTAVYYCTRLGTGNTKGFAYWGQGTLVTVSS
VL: DIQITQSPSSLSASVGDRVTITCKSSQSLLYSENNQDYLAWYQQKPGKVPKLLIYGASNRHTGVPSRFSGSGSGTDFTLTISSLQPEDVATYYCEQTYRYPFTFGQGTKLEIK
B2: A11BB142: 79E3E3 variant; VH SEQ ID NO: 6, VL SEQ ID NO: 22 (antibody, V domains shown)
VH: QIQLVQSGAEVKKPGSSVKVSCKASGYTFTDYAMNWVRQAPGQGLEWMGWINTQTGKPTYAQKFQGRVTFTLDESTSTTYMELSSLRSEDTAVYYCARLGTGNTKGFAYWGQGTLVTVSS
VL: DIQMTQSPSSLSASVGDRVTITCKSSQSLLYSENNQDYLAWYQQKPGKVPKLLIYGASNRHTGVPSRFSGSGSGTDFTLTISSLQPEDVATYYCEQTYRYPFTFGQGTKLEIK
B3: A11BB140: 79E3E3 variant; VH SEQ ID NO: 7, VL SEQ ID NO: 22 (antibody, V domains shown)
VH: QIQLVQSGAEVKKPGSSVKVSCKASGYTFTDYAMNWVRQAPGQGLEWMGWINTQTGKPTYAQKFQGRVTFTLDESTSTTYMELSSLRSEDTAVYYCTRLGTGNTKGFAYWGQGTLVTVSS
VL: DIQMTQSPSSLSASVGDRVTITCKSSQSLLYSENNQDYLAWYQQKPGKVPKLLIYGASNRHTGVPSRFSGSGSGTDFTLTISSLQPEDVATYYCEQTYRYPFTFGQGTKLEIK
B4: A11BB139: 79E3E3 variant; VH SEQ ID NO: 5, VL SEQ ID NO: 22 (antibody, V domains shown)
VH: QIQLVQSGAEVKKPGSSVKVSCKASGYTFTDYAMNWVRQAPGQGLEWMGWINTQTGKPTYAQKFQGRVTFTLDESTSTAYMELSSLRSEDTAVYYCTRLGTGNTKGFAYWGQGTLVTVSS
VL: DIQMTQSPSSLSASVGDRVTITCKSSQSLLYSENNQDYLAWYQQKPGKVPKLLIYGASNRHTGVPSRFSGSGSGTDFTLTISSLQPEDVATYYCEQTYRYPFTFGQGTKLEIK
B5: A11BB141: 79E3E3 variant; VH SEQ ID NO: 7, VL SEQ ID NO: 19 (antibody, V domains shown)
VH: QIQLVQSGAEVKKPGSSVKVSCKASGYTFTDYAMNWVRQAPGQGLEWMGWINTQTGKPTYAQKFQGRVTFTLDESTSTTYMELSSLRSEDTAVYYCTRLGTGNTKGFAYWGQGTLVTVSS
VL: DIQITQSPSSLSASVGDRVTITCKSSQSLLYSENNQDYLAWYQQKPGKVPKLLIYGASNRHTGVPSRFSGSGSGTDFTLTISSLQPEDVATYYCEQTYRYPFTFGQGTKLEIK
B6: A11BB131: 79E3E3 variant; VH SEQ ID NO: 11, VL SEQ ID NO: 21 (antibody, V domains shown)
VH: QIQLVQSGSELKKPGASVKISCKASGYTFTDYAMNWVRQAPGQGLEWMGWINTQTGKPTYAQGFTGRFVFSLDTSVRTAYLQISSLKAEDTAVYFCTRLGTGNTKGFAYWGQGTLVTVSS
VL: DIQITQSPSSLSASVGDRVTITCKSSQSLLYSENNQDYLAWYQQKPGKVPKLLIYGASNRHTGVPSRFSGSGSGTDFTLTISSLQPEDVATYYCEQTYRYPFTFGQGTKLEIK
B7: A11BB134: 79E3E3 variant; VH SEQ ID NO: 10, VL SEQ ID NO: 22 (antibody, V domains shown)
VH: QIQLVQSGSELKKPGASVKISCKASGYTFTDYAMNWVKQAPGQGLEWMGWINTQTGKPTYAQGFTGRFVFSLDTSVSTAYLQISSLKAEDTAVYFCTRLGTGNTKGFAYWGQGTLVTVSS
VL: DIQMTQSPSSLSASVGDRVTITCKSSQSLLYSENNQDYLAWYQQKPGKVPKLLIYGASNRHTGVPSRFSGSGSGTDFTLTISSLQPEDVATYYCEQTYRYPFTFGQGTKLEIK
B8: A11BB138: 79E3E3 variant; VH SEQ ID NO: 12, VL SEQ ID NO: 21 (antibody, V domains shown)
VH: QIQLVQSGSELKKPGASVKISCKASGYTFTDYAMNWVRQAPGQGLEWMGWINTQTGKPTYAQGFTGRFVFSLDTSVSTAYLQISSLKAEDTAVYFCTRLGTGNTKGFAYWGQGTLVTVSS
VL: DIQITQSPSSLSASVGDRVTITCKSSQSLLYSENNQDYLAWYQQKPGKVPKLLIYGASNRHTGVPSRFSGSGSGTDFTLTISSLQPEDVATYYCEQTYRYPFTFGQGTKLEIK
B9: A11BB136: 79E3E3 variant; VH SEQ ID NO: 14, VL SEQ ID NO: 22 (antibody, V domains shown)
VH: QIQLVQSGSELKKPGASVKVSCKASGYTFTDYAMNWVRQAPGQGLEWMGWINTQTGKPTYAQGFTGRFVFSLDTSVSTAYLQISSLKAEDTAVYFCTRLGTGNTKGFAYWGQGTLVTVSS
VL: DIQMTQSPSSLSASVGDRVTITCKSSQSLLYSENNQDYLAWYQQKPGKVPKLLIYGASNRHTGVPSRFSGSGSGTDFTLTISSLQPEDVATYYCEQTYRYPFTFGQGTKLEIK
B10: A11BB143: 79E3E3 variant; VH SEQ ID NO: 15, VL SEQ ID NO: 22 (antibody, V domains shown)
VH: QVQLVQSGAEVKKPGSSVKVSCKASGYTFTDYAMNWVRQAPGQGLEWMGWINTQTGKPTYAQKFQGRVTFTLDESTSTAYMELSSLRSEDTAVYYCTRLGTGNTKGFAYWGQGTLVTVSS
VL: DIQMTQSPSSLSASVGDRVTITCKSSQSLLYSENNQDYLAWYQQKPGKVPKLLIYGASNRHTGVPSRFSGSGSGTDFTLTISSLQPEDVATYYCEQTYRYPFTFGQGTKLEIK
B11: A11BB112: 16E10 variant; VH SEQ ID NO: 49, VL SEQ ID NO: 61 (antibody, V domains shown)
VH: EVQLLESGGGLVQPGGSLRLSCAASGFSFSSSYYMCWVRQAPGKGLEWVSCIGTTRGSTYYADSVKGRFTISRDNSKNTLYLQMNSLRAEDTAVYYCARDATGYRINTIGLYFNLWGQGTLVTVSS
VL: DIVMTQSPDSLAVSLGERATINCQASQTIYSYLSWYQQKPGQPPKLLIYEASKLASGVPDRFSGSGSGTDYTLTISSLQAEDVAVYYCQSYHGTASTEYNTFGGGTKVEIK
B12: A11BB117: 16E10 variant; VH SEQ ID NO: 56, VL SEQ ID NO: 61 (antibody, V domains shown)
VH: EVQLLESGGGLVQPGGSLRLSCAASGFSFSSSYYMSWVRQAPGKGLEWVSAIGTTRGSTYYADSVKGRFTISRDSSKNTVYLQMNSLRAEDTAVYFCARDATGYRINTIGLYFNLWGQGTLVTVSS
VL: DIVMTQSPDSLAVSLGERATINCQASQTIYSYLSWYQQKPGQPPKLLIYEASKLASGVPDRFSGSGSGTDYTLTISSLQAEDVAVYYCQSYHGTASTEYNTFGGGTKVEIK
B13: A11BB114: 16E10 variant; VH SEQ ID NO: 50, VL SEQ ID NO: 61 (antibody, V domains shown)
VH: EVQLLESGGGLVQPGGSLRLSCAASGFSFSSSYYMCWVRQAPGKGLEWVSCIGTTRGSTYYADSVKGRFTISRDNSKNTVYLQMNSLRAEDTAVYYCARDATGYRINTIGLYFNLWGQGTLVTVSS
VL: DIVMTQSPDSLAVSLGERATINCQASQTIYSYLSWYQQKPGQPPKLLIYEASKLASGVPDRFSGSGSGTDYTLTISSLQAEDVAVYYCQSYHGTASTEYNTFGGGTKVEIK

Biological target: T1, CHO-hu α11 (Homo sapiens, UniProt Q9UKX5)
T1 construct: expressed in transfected cells; host or cells: CHO-K1
T1 sequence (Q9UKX5 23-1188): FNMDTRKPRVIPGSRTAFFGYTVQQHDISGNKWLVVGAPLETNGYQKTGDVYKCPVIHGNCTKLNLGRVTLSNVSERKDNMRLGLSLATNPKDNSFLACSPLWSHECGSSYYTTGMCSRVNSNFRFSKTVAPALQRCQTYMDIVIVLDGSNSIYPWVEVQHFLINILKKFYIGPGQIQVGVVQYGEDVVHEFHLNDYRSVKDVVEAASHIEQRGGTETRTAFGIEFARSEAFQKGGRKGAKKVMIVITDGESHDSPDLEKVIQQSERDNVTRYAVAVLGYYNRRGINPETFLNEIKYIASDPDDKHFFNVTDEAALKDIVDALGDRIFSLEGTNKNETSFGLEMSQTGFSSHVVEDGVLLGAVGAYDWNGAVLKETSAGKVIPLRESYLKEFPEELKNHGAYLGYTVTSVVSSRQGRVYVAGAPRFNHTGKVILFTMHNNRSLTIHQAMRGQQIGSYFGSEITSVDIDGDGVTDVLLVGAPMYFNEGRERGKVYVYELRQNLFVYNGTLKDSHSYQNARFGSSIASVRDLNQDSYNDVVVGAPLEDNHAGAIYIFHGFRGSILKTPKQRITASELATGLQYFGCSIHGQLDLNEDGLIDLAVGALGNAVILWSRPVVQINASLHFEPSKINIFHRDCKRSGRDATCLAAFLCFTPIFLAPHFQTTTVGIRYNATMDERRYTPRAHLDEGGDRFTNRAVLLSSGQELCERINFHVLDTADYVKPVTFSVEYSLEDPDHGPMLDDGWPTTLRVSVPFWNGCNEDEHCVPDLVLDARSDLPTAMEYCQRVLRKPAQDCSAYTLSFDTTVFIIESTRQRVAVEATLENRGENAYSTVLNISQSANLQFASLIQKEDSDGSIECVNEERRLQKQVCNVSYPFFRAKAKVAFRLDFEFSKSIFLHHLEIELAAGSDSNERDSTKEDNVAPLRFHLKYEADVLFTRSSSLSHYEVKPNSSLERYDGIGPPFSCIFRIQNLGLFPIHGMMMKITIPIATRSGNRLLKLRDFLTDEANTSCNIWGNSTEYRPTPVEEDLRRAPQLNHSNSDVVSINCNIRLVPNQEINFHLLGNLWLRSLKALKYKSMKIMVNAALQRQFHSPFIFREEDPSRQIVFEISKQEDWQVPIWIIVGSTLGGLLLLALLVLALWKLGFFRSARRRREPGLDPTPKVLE
T1 sequence (P05556 21-798 partner): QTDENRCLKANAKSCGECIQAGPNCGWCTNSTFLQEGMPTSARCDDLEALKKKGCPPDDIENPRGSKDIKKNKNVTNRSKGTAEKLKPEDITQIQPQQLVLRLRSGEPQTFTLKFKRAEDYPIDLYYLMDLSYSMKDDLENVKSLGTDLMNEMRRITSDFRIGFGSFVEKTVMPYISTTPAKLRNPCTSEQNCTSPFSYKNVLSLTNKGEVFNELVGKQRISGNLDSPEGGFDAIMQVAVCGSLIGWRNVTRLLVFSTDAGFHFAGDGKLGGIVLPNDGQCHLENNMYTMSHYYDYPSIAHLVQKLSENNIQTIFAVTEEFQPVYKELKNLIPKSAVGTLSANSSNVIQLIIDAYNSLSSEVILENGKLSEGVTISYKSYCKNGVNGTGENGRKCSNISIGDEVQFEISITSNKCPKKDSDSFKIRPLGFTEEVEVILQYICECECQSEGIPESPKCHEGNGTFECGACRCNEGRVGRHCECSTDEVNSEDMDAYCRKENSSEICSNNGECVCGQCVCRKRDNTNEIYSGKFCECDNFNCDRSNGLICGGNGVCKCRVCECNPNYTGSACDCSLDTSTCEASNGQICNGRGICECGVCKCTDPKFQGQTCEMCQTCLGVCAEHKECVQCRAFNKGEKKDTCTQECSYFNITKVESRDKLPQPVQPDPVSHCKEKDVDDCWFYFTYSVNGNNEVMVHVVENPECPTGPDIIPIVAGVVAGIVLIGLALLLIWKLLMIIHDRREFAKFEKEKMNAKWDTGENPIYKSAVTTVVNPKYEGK
Assay: FACS antibody binding to CHO-K1 cells expressing human α11
Details: Table 13, 79E3E3 variants
Procedure: 200,000 cells (wild-type CHO-K1 cells or CHO-K1 cells expressing human α11) were incubated with each antibody at desired concentrations in FACS buffer for 30 min at 4° C. Then, the cells were washed with FACS buffer and incubated with secondary antibody at 1:100 dilution for 30 minutes at 4° C. Cells were then washed and fixed with 1% PF A in PBS for 20 minutes at room temperature; washed again and read on a cytometer in FACS buffer.

Q: For B1, which EC50 is on record?
A: 5.13 nM

Q: With B2 as the molecule, how does the EC50 read?
A: 2.07 nM

Q: Which EC50 does the source give for B3 here?
A: 2.5 nM

Q: Which EC50 does the source give for B4 here?
A: 1.98 nM

Q: B5 was tested. Which EC50 did it give?
A: 4.6 nM

Q: How did the EC50 turn out when B6 was run?
A: 2.49 nM

Q: B7 was tested. Which EC50 did it give?
A: 3.49 nM

Q: Which EC50 does the source give for B8 here?
A: 4.63 nM

Q: How did the EC50 turn out when B9 was run?
A: 1.92 nM

Q: How did the EC50 turn out when B10 was run?
A: 2.12 nM

Biological target: T1, CHO-hu α11
Assay: Cell adhesion inhibition on type I collagen (xCelligence)
Type: cell-based
Details: Table 12, 16E10 variants, FIG. 5B; read-out: CHO-α11 Adhesion Inhibition IC50
Procedure: 0.6×10^6 cells/mL were incubated with each antibody at a range of concentrations for 20 minutes at 37° C. E-Plate VIEW 96 PET plate coated with 100 ng/ml type I collagen or PBS overnight at room temperature was blocked in 3% BSA for 1 hour at room temperature. After washing the plate with PBS, cell and antibody mixture was added to the wells and the plate was places into an xCelligence machine. Cell adhesion was recorded over 6 hours. The time point of maximum cell adhesion was used for comparison relative to control.

Q: How did the IC50 turn out when B11 was run?
A: 0.5 nM

Q: How did the IC50 turn out when B12 was run?
A: 0.7 nM

Q: B13 was tested. Which IC50 did it give?
A: 0.5 nM
